# Measured values as given in patent US8114412B2, “T. cruzi-derived neurotrophic agents and methods of use therefor” (priority 1999, dated 2012).
# B1: CNTF: human ciliary neurotrophic factor; recombinant human and rat CNTF (protein, UniProt P26441 1-200, looked up)
# Ciliary neurotrophic factor: MAFTEHSPLTPHRRDLCSRSIWLARKIRSDLTALTESYVKHQGLNKNINLDSADGMPVASTDQWSELTEAERLQENLQAYRTFHVLLARLLEDQQVHFTPTEGDFHQAIHTLLLQVAAFAYQIEELMILLEYKIPRNEADGMPINVGDGGLFEKKLWGLKVLQELSQWTVRSIHDLRFISSHQTGIPARGSHYIANNKKM
# Columns and labels:
# [1] = Martin et al. 1996; cited from earlier work
# PC12 cells [2] = assay: Trophic factor withdrawal-induced apoptosis of PC12 cells (DAPI/TUNEL); type: cell-based, rat; conditions: serum-free RPMI-1640/0.2% BSA, 17 hours, DAPI or TUNEL
# Excerpt: PC12 cells were obtained from ATCC (Manassas, Va. (Accession No. CRL-1721)) and cultured on collagen-coated dishes in RPMI 1640 supplemented with 10% horse serum and 5% fetal bovine serum (Greene, L. A. and Tishler, A. S., Proc. Natl. Acad. Sci. USA, 73: 2424-2428 (1976)). For differentiation and survival experiments, cells were washed three times in serum-free RPMI/0.2% BSA, plated in the same medium in collagen-coated plastic dishes at 2×10^5/ml, without and with growth factors, TS, recombinant proteins, synthetic peptides, for the time and concentrations indicated in the Figures.
# Cell staining with 4,6-diamino-2-phenylindole (DAPI). Cells were fixed with 4% formaldehyde in PBS for 5 minutes, washed with PBS, stained with 10 μg/ml DAPI (Sigma) for 2 minutes, washed with PBS, and visualized under UV light using a fluorescent microscope. About 300-400 cells were examined under the microscope to determine the percentage of apoptotic cells.
# Cell DNA nick end labeling (TUNEL) (Gavrieli, Y., et al., J. Cell. Biol. 119: 493-501 (1992)) assay was performed using a kit purchased from Boehringer Mannheim as described by the manufacturer.
# (§1) Protection against apoptosis of PC12 cells in serum-free medium containing a test agent (agent N)(e.g., protection induced by TS, TS fragments, NGF or other growth factors), was calculated by the formula: 100%-[(apoptosis(%) of cells kept in RPMI containing test agent N÷apoptosis (%) of cells kept in RPMI)×100%]. Testing the effect of wortmannin (Sigma) and LY294002 (Sigma) in inhibiting the neuroprotection of TS was performed following the protocol described by others (Yao and Cooper, Science, 267:2003-2006 (1995); D'Mello et al., J. Neurosci 17:1548-1560 (1997)). In brief, PC12 cells were switched from growth medium to RPMI without and with TS or various other growth factors. After 24 hr, wortmannin and LY294002 were added to the cultures. After another 24 hrs, cells were examined for apoptosis by the DAPI assay, as above.
# PC12 cells [3] = assay: Reversal of TS-induced neuroprotection by PI-3 kinase inhibitors in PC12 cells; type: cell-based, rat; conditions: RPMI+CNTF 50 ng/ml; similar to RPMI alone
# Procedure: as §1
# Bcl-2 mRNA in PC12 cells = assay: RT-PCR of Bcl-2 gene transcripts in PC12 cells; type: cell-based, rat; conditions: TS 2.5 ng/ml, CNTF 50 ng/ml, alone or combined, 17 hours
# Procedure: Total RNA was extracted from PC12 cells by the acid guanidinum isothiocyanate method (Chomchinski, P., et al., Biotechniques 15: 532-535 (1993)) using TRI-reagent (Molecular Research Center, Inc.). cDNA synthesis was performed according to the instruction of the manufacturer (Gibco-BRL). Reverse transcription reactions were carried out for 50 minutes at 42° C. and were heated to 70° C. for 15 minutes to terminate the reaction using a MiniCycler (MJ Research). Samples were cooled to 4° C. and stored at −20° C. until use.
# PCR reactions were performed in 50 μl containing 1.5 μl of template DNA (corresponding to cDNA synthesized from 100 ng of total RNA), 1×PCR buffer, 100 μM of deoxynucleotides, 2.5 mM MgCl2, 10 mM DTT, 10 pM of Bcl-2 primers, and 2 U of Taq DNA polymerase (Gibco-BRL). The synthetic DNA primers for the rat Bcl-2 were: 5′-[…]-3′ (SEQ ID NO:8) and 5′-[…]-3′(SEQ ID NO:9) to give a PCR product of 566 bp. The sequences for synthetic GAPDH DNA primers (Wong, H., et al., Anal. Biochem. 223: 251-258 (1994)) were: 5′-[…]-3′ (SEQ ID NO:10) and 5′-[…]-3′ (SEQ ID NO:11) giving a PCR produce of 306 base pairs. Amplifications were carried out in MiniCycler (MJ Research) using following conditions: 98° C. for 5 minutes (initial heat denaturation), 3 cycles of 94° C. for 1 minute, 63° C. for 1 minute, 72° C. for 1.5 minutes; 3 cycles of 94° C. for 1 minutes, 60° C. for 1 minute, 72° C. for 1.5 minutes, followed by 72° C. for 10 minutes. Primers for GAPDH (10 pM) were added at cycle 7 by the “primer-dropping” method. Aliquots of PCR reaction products were separated by electrophoresis in 2% agarose gels (Ultrapure, Gibco-BRL), containing 0.2 μg/ml ethidium bromide. Gels were analyzed by computerized densitometric scanning using Gel doc 1000 (Bio Rad) and Molecular Analyst Software, version 2.1.
molecule,measurement,setting,value
B1,undesirable side effects of administration,[1],"muscle atrophy, cachexia and anorexia"
same,protection of PC12 cells from apoptosis induced by trophic factor withdrawal,PC12 cells [2],"little, if any, protection"
same,viability of PC12 cells,PC12 cells [3],~33%
same,bcl-2 gene expression in PC12 cells,Bcl-2 mRNA in PC12 cells,did not induce bcl-2 gene expression individually
